Reference: PMC9765406

Assays:
[1] = target: BfpD, type IV pilus (bundle-forming pilus) extension ATPase from enteropathogenic Escherichia coli (enteropathogenic Escherichia coli (EPEC)); test: cryo-EM structure
[2] = target: BfpD, type IV pilus (bundle-forming pilus) extension ATPase from enteropathogenic Escherichia coli (enteropathogenic Escherichia coli (EPEC)); test: negative-stain electron microscopy with reference-free 2D averaging

Work on “BfpD, type IV pilus (bundle-forming pilus) extension ATPase from enteropathogenic Escherichia coli (enzyme)” yielded a stoichiometry N [1] of 6 and a stoichiometry N [2] of 6.
